Experimental data published in article PMC11266705, “Elf1 promotes transcription-coupled repair in yeast by using its C-terminal domain to bind TFIIH” (Nature Communications, 2024).
Numbering of substitutions follows the chain as printed. Numbers in names are those of the source. Read-outs that look alike come from different tables or passages of the source. Blank lines part the entries; values can stand above or below the molecule they belong to.

How the values were obtained:
[1] = molecular target: p62 PH domain (Homo sapiens) (UniProt P32780); conditions: cited from earlier work
[2] = molecular target: p62 PH domain (Homo sapiens) (UniProt P32780); conditions: cited from earlier work; remark: listed apart in the source
[3] = molecular target: p62 (Tfb1) PH domain (Saccharomyces cerevisiae) (UniProt P32776); conditions: cited from earlier work
[4] = molecular target: p62 PH domain (Homo sapiens) (UniProt P32780); conditions: cited from earlier work; remark: listed apart in the source
[5] = molecular target: T1, PH domain (1–115) of TFIIH p62 subunit (S. cerevisiae, UniProt P32776 1-115); assay: pull-down; GST beads with GST-tagged Elf1 proteins mixed with purified PH domain of p62; 23 °C, 1 h; washed twice in 20 mM HEPES pH 7.4, 5% glycerol; SDS-PAGE; conditions: both partners purified
T1 construct: also called PH domain of p62; p62 PH domain; source: E. coli Rosetta 2(DE3), purified (Glutathione Sepharose, released by PreScission protease cleavage)
T1 sequence (looked up): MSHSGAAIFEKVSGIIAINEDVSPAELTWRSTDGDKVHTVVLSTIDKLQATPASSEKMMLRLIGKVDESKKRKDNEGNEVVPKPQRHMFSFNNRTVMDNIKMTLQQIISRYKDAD

[6] = molecular target: T1, PH domain (1–115) of TFIIH p62 subunit; assay: BLI; Octet K2; GST-Elf1-CTD immobilised on GST-specific biosensors; PH domain of p62 at 30, 15, 7.5, 3.75 and 0 µM; 20 mM Tris-HCl pH 7.5, 5% glycerol, 1 mM DTT; association 2 min, dissociation 3 min; conditions: both partners purified

Chain of p62 PH domain (Homo sapiens) (P32780 1-108): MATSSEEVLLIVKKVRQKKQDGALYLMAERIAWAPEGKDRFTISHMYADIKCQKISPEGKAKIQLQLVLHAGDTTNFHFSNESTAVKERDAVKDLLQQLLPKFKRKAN

Molecule: UVSSA TIR (from UniProt Q2YD98)
Kd [1]: 71 nM

Molecule: TFIIEα TIR (from UniProt P29083)
Kd [2]: 45 nM

Molecule: Rad4 TIR (from UniProt P14736)
Kd [3]: 50 nM

Molecule: DP1 TIR (from UniProt Q14186)
Kd [4]: 35300 nM

B3: GST-Elf1-CTD (residues 85–145) (domain or fragment, S. cerevisiae, UniProt P36053 85-145, looked up)
chain: GSDTDDGDEGSDSDYESDSEQDAKTQNDGEIDSDEEEVDSDEERIGQVKRGRGALVDSDDE
notes: also called WT CTD; Elf1 C-terminal domain; source: E. coli Rosetta 2(DE3), purified (Glutathione Sepharose, Superdex 200)
Kd [6]: 3820 nM

B4: GST-Elf1-CTD Y99A mutant (residues 85–145) (domain or fragment, S. cerevisiae, UniProt P36053 85-145, looked up)
chain: B3 chain with Y15A
notes: also called Y99A GST-Elf1-CTD; Y99A mutant CTD; source: E. coli Rosetta 2(DE3), purified (Glutathione Sepharose, Superdex 200)
Kd [6]: 7320 nM

Next, values leading:

binding result [5]: binds
B1: GST-Elf1 residues 85–122 (domain or fragment, S. cerevisiae, UniProt P36053 85-122, looked up)
chain: GSDTDDGDEGSDSDYESDSEQDAKTQNDGEIDSDEEEV
notes: source: E. coli Rosetta 2(DE3), purified (Glutathione Sepharose, Superdex 200)

binding result [5]: binds
B2: GST-Elf1 residues 85–113 (domain or fragment, S. cerevisiae, UniProt P36053 85-113, looked up)
chain: GSDTDDGDEGSDSDYESDSEQDAKTQNDG
notes: elongation factor-1 (Elf1), S. cerevisiae, residues 85-113 (truncated CTD); source: E. coli Rosetta 2(DE3), purified (Glutathione Sepharose, Superdex 200)

binding result [5]: binds
B5: GST-Elf1-CTD I115A (residues 85–145) (domain or fragment, S. cerevisiae, UniProt P36053 85-145, looked up)
chain: B3 chain with I31A
notes: also called I115A control; source: E. coli Rosetta 2(DE3), purified (Glutathione Sepharose, Superdex 200)
